Data reported in article PMC7521599.
Values belong to the molecule of their own block, whether it stands above or below them.

Assays:
[1] = biological target: Skp1ΔΔ (doubly truncated Dictyostelium Skp1A: Δinternal loop/ΔC-terminus) (Dictyostelium discoideum) (UniProt P52285); test: AUC
[2] = biological target: Skp1 (OCP2) (Cavia porcellus) (UniProt P63209); settings: cited from earlier work
[3] = biological target: T1, Dictyostelium discoideum Skp1A (Dictyostelium discoideum), P52285; test: AUC; settings: remark: other sources report otherwise
T1 chain: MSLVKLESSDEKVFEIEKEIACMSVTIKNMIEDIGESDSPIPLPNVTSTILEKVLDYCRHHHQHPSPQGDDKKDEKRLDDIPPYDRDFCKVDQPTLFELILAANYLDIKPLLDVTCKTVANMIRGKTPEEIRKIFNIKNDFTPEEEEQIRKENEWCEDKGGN

stoichiometry N [1]: 2
Molecule: Skp1ΔΔ (doubly truncated Dictyostelium Skp1A: Δinternal loop/ΔC-terminus) (from UniProt P52285 1-125) (domain or fragment)

Molecule: Skp1 (OCP2) (from UniProt P63209)
Kd [2]: 1100 nM

Kd [3]: 2500 nM
stoichiometry N [3]: 2
B1: Dictyostelium discoideum Skp1A, P52285 1-162 (natural protein)
chain: MSLVKLESSDEKVFEIEKEIACMSVTIKNMIEDIGESDSPIPLPNVTSTILEKVLDYCRHHHQHPSPQGDDKKDEKRLDDIPPYDRDFCKVDQPTLFELILAANYLDIKPLLDVTCKTVANMIRGKTPEEIRKIFNIKNDFTPEEEEQIRKENEWCEDKGGN
